Reference: PMC9254573 (Biochemistry, 2022)
Blank lines part the entries; values can stand above or below the molecule they belong to. Ends that are not written are not given here.

What was measured:
[1] = target: CCR7 N-terminus (Homo sapiens) (UniProt P32248); test: nanoDSF; details: cited from earlier work
CCR7 (Homo sapiens) [2] = test: nanoDSF; details: cited from earlier work
CCR7 (Homo sapiens) [3] = test: nanoDSF; details: cited from earlier work; remark: listed apart in the source
CCR7 (Homo sapiens) [4] = test: NMR; details: cited from earlier work
[5] = target: T1, Recombinant human [U-15N] CCL19 (human, UniProt Q99731 22-98, uniformly 15N-labelled ([U-15N])); test: NMR titration
T1 sequence (looked up): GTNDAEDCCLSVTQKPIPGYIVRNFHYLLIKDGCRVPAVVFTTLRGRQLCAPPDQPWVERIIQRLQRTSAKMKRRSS

CCL21, sequence (O00585 24-134): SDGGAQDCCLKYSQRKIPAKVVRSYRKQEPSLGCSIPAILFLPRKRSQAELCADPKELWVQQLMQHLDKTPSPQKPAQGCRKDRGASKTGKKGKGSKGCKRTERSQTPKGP
CCR7 N-terminus (Homo sapiens), sequence (P32248 25-59): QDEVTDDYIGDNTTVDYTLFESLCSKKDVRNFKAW

Molecule: CCL19 (from UniProt Q99731)
Kd [1]: > 1000 nM
Kd (CCR7 (Homo sapiens) [2]): 300 nM
Kd (CCR7 (Homo sapiens) [3]): 800 nM

Molecule: CCL21 (from UniProt O00585)
Kd (CCR7 (Homo sapiens) [4]): 700000 nM

Kd [5]: 200000 ± 100000 nM
Molecule: TDDYIGD-NH2 [CCR7 5-11 peptide (TDDYIGD-NH2)]
